Test results taken from PMC3902935.

B1: JL988 80-nt ssDNA (ssDNA)
DNA: ATTATTATTATTATTATTATTATTATTATTATTATTATTATTATTTCATTTATTTATTTATTTATTTATTTATTTATTTA
B2: JL987 70-nt ssDNA (ssDNA)
DNA: ATTATTATTATTATTATTATTATTATTATTATTATTATTTCATTTATTTATTTATTTATTTATTTATTTA
B3: JL986 60-nt ssDNA (ssDNA)
DNA: ATTATTATTATTATTATTATTATTATTATTATTTCATTTATTTATTTATTTATTTATTTA

How the values were obtained:
[1] = molecular target: T1, APOBEC3A (A3A) WT (human, UniProt P31941 1-199); test: NMR titration (1H-15N HSQC); 25 mM sodium phosphate pH 6.9, 10 mM DTT, 25 C; Zn2+ enzyme; NMR: 25 mM sodium phosphate pH 6.9, 10 mM DTT, 25 C, 0.074 mM A3A; EMSA: protocol of Byeon et al. (ref 16), buffer not given, 20 nM DNA, 25-100 uM A3A
[2] = molecular target: APOBEC3A Y130F (human, UniProt P31941 1-199, Y130F); test: EMSA; 60 or 80 uM protein; similar to WT; NMR: 25 mM sodium phosphate pH 6.9, 10 mM DTT, 25 C, 0.074 mM A3A; EMSA: protocol of Byeon et al. (ref 16), buffer not given, 20 nM DNA, 25-100 uM A3A
[3] = molecular target: APOBEC3A E72Q (human, UniProt P31941 1-199, E72Q); test: as above
[4] = molecular target: APOBEC3A D131E (human, UniProt P31941 1-199, D131E); test: as above
[5] = molecular target: T1, APOBEC3A (A3A) WT; test: EMSA; 20 nM DNA; NMR: 25 mM sodium phosphate pH 6.9, 10 mM DTT, 25 C, 0.074 mM A3A; EMSA: protocol of Byeon et al. (ref 16), buffer not given, 20 nM DNA, 25-100 uM A3A

T1 sequence (P31941 whole entry): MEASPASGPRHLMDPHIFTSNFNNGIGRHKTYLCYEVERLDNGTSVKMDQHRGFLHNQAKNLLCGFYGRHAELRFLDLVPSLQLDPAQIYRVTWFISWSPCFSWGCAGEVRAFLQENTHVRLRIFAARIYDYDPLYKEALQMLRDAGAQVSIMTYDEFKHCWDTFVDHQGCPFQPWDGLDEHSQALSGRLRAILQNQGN
Sequence of APOBEC3A Y130F (P31941 whole entry Y130F): as the sequence (P31941 whole entry) above, with Y130F counted along it
Sequence of APOBEC3A D131E (P31941 whole entry D131E): as the sequence (P31941 whole entry) above, with D131E counted along it
Sequence of APOBEC3A E72Q (P31941 whole entry E72Q): as the sequence (P31941 whole entry) above, with E72Q counted along it

Binder	Kd [1]	binding result [2]	binding result [3]	binding result [4]	binding result [5]
AUUUCAUUU (ssRNA) [JL1181 9-nt ssRNA]	420 ± 70 µM				
B1		binds	binds	binds	binds
B2					binds
B3					binds
